According to FireProtDB (doi:10.1038/srep15545):

Conditions: Escherichia coli (strain K12); pH 9; Thermal; DSC; Glycine 50mM; reversible: yes; whole UniProt chain shown

B1: Divalent-cation tolerance protein CutA wild type, P69488 (protein)
chain: MLDEKSSNTASVVVLCTAPDEATAQDLAAKVLAEKLAACATLIPGATSLYYWEGKLEQEYEVQMILKTTVSHQQALLECLKSHHPYQTPELLVLPVTHGDTDYLSWLNASLR
In the case of B1, the Tm is reported as 85.6 °C and the “unfolding enthalpy (calorimetric)” value is reported as 208 kcal/mol.
